Measurements as given in the domain aggregation screens of Martell et al. (2025).

Assay: soluble fraction after stress (log2 fold change); higher = more stays soluble; pooled small domains, quantitative proteomics
Conditions: stress: pH 4
How it was run: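 Aggregation propensity here comes from the fold change in the soluble amount of each small protein domain after acid stress, measured in pooled custom libraries by high-throughput quantitative proteomics. The acid stress was pH 4. On the log2 scale, higher values mean more of the domain stayed soluble.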

Row | Sequence | soluble fraction (log2)
1 | HMYDEAAIRKAVMTFVTDNRDERLDLAKISAVLTSKFGNINFDELGYKRFSSFIDSFPELRRNNTFVSLR | -0.193
2 | HMYDFGVILQKLRKEKGFTQEQLARLIHKESSIISRYEKGLQNPTFETVKEFAAIFNVSMDYLAG | -0.255
3 | HMYEGNEFSSTGMFREDILAITAVHPMREDAVTELLARSNESEETLEMMIDEELLRRVAYGNHNYYMRRFR | -0.388
4 | HMYEHLKALRESLGMTQAEFGESVGVAKSTYNNYEIGARDPKSDFWIAVAQRYGVTIDYLMGFSDDPKKT | 0.253
5 | HMYELSDTEWKIIEQVGLGASNKEIAASLHFSEGTIRNYLSVILDKLSLRDRTQLAILYVKMN | -0.122
6 | HMYEPPTEDEKRVLSLLATRESIVRSDVDRLLGVSQSTANRILKQMIEKYLISQEGTGKNTKYIK | -0.113
7 | HMYESAMSDLHARIMSSDDPHGEIYKMLTQSGPEAKYIQDMYNETSIDRGLHPDDDFEDIIDAMVAELDD | -1.24
8 | HMYEVVPNMKGLSYEQAATALRTAGLEPELSDSIYDDKTRPGTVLEQSPRANTKVKPGRTVYLTVNAF | 0.105
9 | HMYFFNTFTQRLFDNPELTQEEAIRQMYPGISGVQTAEKLQENFMADVYIQAAIRQEIVVQLIR | 0.22
10 | HMYGSLGEYELAAVQWIYGKGKITTRELSSLIGKGLTLSSKTLRGLAAKGILEWHGNSKNDPSQFYSLP | -0.196
11 | HMYHADLIGLEARSTAGDKLGEVNAVYNFGAGDLIEIKMTDGNLEMLPFTRQYVPTVSIKDGFIIVQM | -1.08
12 | HMYHIYPVADNDTPKLSADRLEYSLSNALLTNKLLNIDEIKKIYNDVILDKDEDGTLELSFKS | 0.167
13 | HMYIDANTALLAKRIQAKNGFLPLSDKSTAEEIYAEFGISKKAFKKALGALYKERLVRIGDEGVVWV | 0.0176
14 | HMYINVQNARTIASFRSSLWRMHRDFTNQGYITADGLKTFLEMGKLYEDAGGNDIYHSKLLPEITALEIKY | -0.421
15 | HMYKDVVVPNTVGDSEEKAYQTLSALGLVVNITYDEDASKSDRVVTSQNPTNKTIKEGESVNIVVNKQP | -0.242
16 | HMYKIDFAEGDRVIIKGGAFSGLRATVVSLHPEKGMAKIKVYMFGDRETLVDIEVSQLEKDK | 0.113
17 | HMYKTKVDIAYDMLMERITEGVYKPGEKLVITHISKELGISDIPVREAIRRLESEGYVKILPNQGAIVYD | -0.185
18 | HMYLGRKATLLSSISGEKMGNAEVLADGNLMSIYVKSLTGEPLSYGSTVLIIKHSEDQNFYLVQN | -0.65
19 | HMYLQKGISNGKVYLSIVHGYRDPVTKKVRRKTIRSLGYLEDLEKQYADPIKHFEAVVAKMNEEEALE | 0.0302
20 | HMYLSNPTYRGDSLVDALTQIGVDASFASRRDLARKNGIENYTGSAKQNLELLQLLREGRLR | -0.173
21 | HMYLYADIYKKLEEKIKNMEVGEKLPSERAMVQEYGVSRNVLREALVLLSERGLIEIRPGKGSYVTNQQ | -0.177
22 | HMYNKKAYVNTNSDFLNVRSEASTESSVVDKLARGTEVNIVGNIQNGFYPIVLNEKNAWVSSDWISFEKPT | ≥ 0.43
23 | HMYNNDEIEKIQTMYNAIYQLNDIEKALIMLFLEDKSYKEIAEIMGISEGNARIKMMRTKDKLKNLISKN | -0.608
24 | HMYNNGYVNSDRVNFRKGASTNSDIYKVLDKNTSVTILDYEGDWSKVKINDTVGYVYTKYITAG | -0.0882
25 | HMYNTDAMGVRIGELRRAKGLTQEAFAKTLGISAQAVSKWETGLGFPDISLLPMIAETLGTKIETLFGAE | -0.272

Row | Sequence | soluble fraction (log2)
26 | HMYPATGTVVTAGGHLNMRSEPDRSGAILARIPNGTALTLTGKNGDWYAATYAGRSGYVSAQYISLS | -0.13
27 | HMYPDNSGDIQQLAQNIFRQENVSVDRDGLALISSRLGSDHAATRSEIEKLALLAGPGGTLTFETISEVLG | -0.942
28 | HMYPEDMMSLMRRALRLINHLESNRKDRHNSRQLELTESKIRRLARYYKGRGLIETEWAYKRDQLRLLV | -0.184
29 | HMYPIYDYISNMYLGKHLNAGMSLEEARGIMDEMLEKLLFDVPEEYHIDRDHFYEYLKKYYTERFSA | -1.7
30 | HMYPQLIGFKVIDEDKGEVGVVKEVSESMHQILLTVMKGKKEILIPLAEEFITKVNRHKKELFMVLPDG | -0.383
31 | HMYRLDVEISDEIKRDIDEETLSEIKGIIAEDPRPSYQNDETRIYRFTFAGREISFRVKDRTATVTEIL | -0.736
32 | HMYRPLYQQVYDFLVKQIAAGEWGPGESLPSEQALAGRLNVSQGTVRKALDALAADSLIDRRQGKGTYVAE | 0.32
33 | HMYRPQQEFTMRDLFQNNLNGSESASVRRDALGAELGIGYGNAKRFLERLNHYGVSREEFTAALEKLESE | -0.205
34 | HMYRSGGYTGAGKDDEEAGVVHRNEFVNTADAVRNPHVKRFLDVFNVAQKDGTIRMLNTSQILERARLDA | 0.0596
35 | HMYRYGETPMVVVPDLIGRTVSDIYEEMNADFRLEKFGNGNTVISQAPKPGERVEQGSVIRVYLSGQDQ | -0.206
36 | HMYSDERLQTFMELLPFFVEELSNKHVTRYNVWQNYREAYPNGYGRSQFFFHLGQNLEAKKK | -0.0353
37 | HMYSIKEFSFEVTTPGQRLDLFLSEELIGQTRSSIQNLILKKYVTVNGQVSKASYKVKTGEFISVKIPV | 0.22
38 | HMYSINKTEFGERIKSAREELKMTQTQLAQLLKTSQTTVAKYEHGEQIPRADVLATISKATGKSTDWLLFG | 0.11
39 | HMYSKQRELIMEAVFKNRVHPTAEYVYKLLKKDHPELSLGTVYRNLNYWAENNMLKKINVPGGSDRFDGT | 0.236
40 | HMYSLGPKERSIVSFIANRPGSRSGQIAKSLQIPLPTIKRILNGLVENKVIARHGIGAGTNYVVEDQA | 0.0323
41 | HMYSMSAPMPGVILEIKVAPGDQVNKGDVVMVLEAMKMKNDLHAARTGTVESIDINSGEQVKYGQVLLRFV | 0.0869
42 | HMYSQIGYGSSGSDVRKLQEILNGKGYNLSVDGQFGAKTKSAVRDYQSKNGLSVDGIVGVNTWGKLT | 0.22
43 | HMYSYNKEEVGKRIKSIRQQKGLTQESFGELFGASKGNVATWEKGISLPNASRLREIADLVSITVEELLYG | 0.00486
44 | HMYTLGEESDGTVRLLELYDIIKNKNEKIFVVDELDRSLHPNLTFNFVKKYLSIENKSQLIVSTH | -1.11
45 | HMYVKKSSFVKKSLNNYEFKITDNTNDLLIFYKGMLPDLFREEQGIVVEGLIDKNNNIVASKV | -0.0152
46 | HMYVSGVPAITSIERVSTPGRRVYAGYTTVPKVIGGMGVSILTTSRGVMTDAEARRQKVGGELLAKV | -0.29
47 | HMYVTGSAIRRLREKRKLTQAQLAAALSVSDKTVSKWETARGLPDITLLEPLARALQVSVPELLSGEEV | -0.0388
48 | HMYVVLYPGMARDEAVQVMNELQSRGIDYYEKNGNIYVPKTDENSLRMELANLGYPKTTNNYD | -0.188
49 | HMYYHQIIGLDVVDENGNTLGKIKEILSPGANDVWVVKRKQKNDLLLPVIDDVIKDVDLAAGKVHVELLEG | -1.38
